Target: T1, human Tie1-Fc fusion protein (Homo sapiens, UniProt P35590)
T1 construct: selected against the Tie1 extracellular domain fused to human Fc or to a histidine purification tag
T1 sequence (P35590 22-759 limits assumed): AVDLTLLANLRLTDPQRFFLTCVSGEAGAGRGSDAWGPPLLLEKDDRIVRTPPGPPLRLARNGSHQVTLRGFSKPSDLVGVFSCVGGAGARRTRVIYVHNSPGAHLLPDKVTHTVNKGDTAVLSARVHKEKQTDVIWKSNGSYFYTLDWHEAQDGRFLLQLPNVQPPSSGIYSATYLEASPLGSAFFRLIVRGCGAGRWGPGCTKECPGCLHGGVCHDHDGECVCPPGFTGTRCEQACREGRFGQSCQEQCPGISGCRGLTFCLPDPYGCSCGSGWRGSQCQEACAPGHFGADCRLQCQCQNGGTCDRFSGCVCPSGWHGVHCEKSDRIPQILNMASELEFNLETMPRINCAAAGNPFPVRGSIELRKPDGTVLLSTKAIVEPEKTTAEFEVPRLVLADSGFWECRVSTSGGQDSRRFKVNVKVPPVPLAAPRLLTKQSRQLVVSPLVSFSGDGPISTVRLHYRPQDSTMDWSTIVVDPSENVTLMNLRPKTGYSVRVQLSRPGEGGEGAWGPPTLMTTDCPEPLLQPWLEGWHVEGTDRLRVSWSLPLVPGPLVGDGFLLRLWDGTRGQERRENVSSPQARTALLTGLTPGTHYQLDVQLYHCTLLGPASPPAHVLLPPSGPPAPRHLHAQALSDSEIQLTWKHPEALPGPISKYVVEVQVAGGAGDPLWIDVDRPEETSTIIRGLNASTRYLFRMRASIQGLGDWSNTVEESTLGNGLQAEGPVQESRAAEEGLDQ
Assay: BIAcore 3000 affinity analysis of Fab and IgG
Format: binding
Protocol: Affinity analysis of the Fab and IgGs was performed using surface plasmon resonance using a BIAcore 3000 instrument. For this analysis both dimeric (Tie1-Fc fusion protein) and monomeric (Tie1-HIS) versions of the extracellular domain of the Tie1 were used. The sensor chips used in these experiments were CM5 (dextran-coated) which allow immobilization of proteins to the chip via standard amine coupling chemistries. The concentration of flowed antibody was determined using a surface plasmon resonance based method. Using a high-density protein A sensor chip, under mass transport limited conditions, the response signal is dependent only on the concentration of the antibody in the sample under test. This approach allows a precise determination of the antibody concentration, a parameter important for accurate determination of the KD.
470 RUs of Tie1 HIS protein were coated on a CM5 sensor chip and 5, 20, 100, and 500 nM of the Fab flowed over the chip at four different flow rates ([…]), rates in which the system is not mass transport limited. Kinetic data was typically determined using a range of analyte concentrations and three different chip coating densities. The data from the lowest coating density that gave a good signal was typically chosen, this was often in a range from 50-100 RUs. Using such low coating densities allowed the sensor curves to be fit using BIAEVALUATION™ 3.0 software to a 1:1 model, often even when using a bivalent analyte (IgG or Tie1-Fc fusion protein). For bivalent analytes, when fit to a 1:1 model was not possible, the curves were fit using a 2:1 model.
The anti-Tie1 antibodies described here bind to both human and mouse Tie1 molecules. The binding of the anti-Tie1 Fab to mouse Tie1-Fc fusion protein was compared with the binding of the anti-Tie1 Fab to human Tie1-Fc fusion protein. In both of these experiments the Tie1-Fc fusion protein was immobilized on the sensor chip and the anti Tie-1 Fab served as the analyte. Under these experimental conditions the anti-Tie1 Fab has very similar KD (˜3 nM) values for both the human and mouse Tie1-Fc fusion proteins (Table 9). Under conditions that are likely to mimic those used in the animal efficacy experiments, i.e. Tie1-Fc immobilized to the CM5 sensor chip and anti-Tie1 used as the analyte, the measured KD was 0.2 nM.

B1: E3: human anti-Tie1 antibody from phage Fab library, reformatted as IgG; HC variable SEQ ID NO:114, LC variable SEQ ID NO:116 (antibody, V domains shown)
VH: EVQLLESGGGLVQPGGSLRLSCAASGFTFSMYGMVWVRQAPGKGLEWVSVISPSGGNTGYADSVKGRFTISRDNSKNTLYLQVNSLRAEDTAVYYCARAPRGYSYGYYYWGQGTLVTVSSASTKGPSVFPLAPSSKSTSGG
VL: DIQMTQSPLSLSASVGDRVTITCRASQGIGHYLAWYQQKPGKVPKLLIYTASTLQSGVPSRFSGSGSGTDFTLTINSLQPEDVATYYCQQFNSYPHTFGQGTRLDIK
modifications: IgG constant regions; Synthetically generated peptide
Kon: 6190 M⁻¹ s⁻¹ | koff: 3.61e-05 s⁻¹

B2: parental E3 Fab: soluble Fab fragment of the parental E3 anti-Tie1 antibody (antibody, V domains shown)
VH: EVQLLESGGGLVQPGGSLRLSCAASGFTFSMYGMVWVRQAPGKGLEWVSVISPSGGNTGYADSVKGRFTISRDNSKNTLYLQVNSLRAEDTAVYYCARAPRGYSYGYYYWGQGTLVTVSSASTKGPSVFPLAPSSKSTSGG
VL: DIQMTQSPLSLSASVGDRVTITCRASQGIGHYLAWYQQKPGKVPKLLIYTASTLQSGVPSRFSGSGSGTDFTLTINSLQPEDVATYYCQQFNSYPHTFGQGTRLDIK
Kon: 8260 M⁻¹ s⁻¹ | koff: 4.47e-05 s⁻¹

Source: patent US20100196361A1, “Method of inhibition of vascular development using an antibody” (DYAX CORP., priority 2003, published 2010)
